Experimental data reported in patent US20200317769A1.

Molecular target: soluble cynomolgus monkey TNF-alpha (cynomolgus monkey) (UniProt P79337)
Test: cell-based or functional assay

soluble cynomolgus monkey TNF-alpha (cynomolgus monkey), sequence (P79337 77-233 limits assumed): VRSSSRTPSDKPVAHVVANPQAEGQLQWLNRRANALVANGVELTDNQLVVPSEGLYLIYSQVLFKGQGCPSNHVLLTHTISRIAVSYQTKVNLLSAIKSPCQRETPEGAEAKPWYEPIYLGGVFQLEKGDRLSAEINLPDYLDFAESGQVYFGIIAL

## adalimumab (antibody)
  Inhibition of cynomolgus TNF-induced L929 cell cytotoxicity EC50: 0.04 nM
